Results: the supplement of paper PMC12764529
± gives the half width of the 95% confidence interval.

experiment: folding stability dG unfold from trypsin proteolysis; higher = more stable
Outline: (§1)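 How resistant each design was to proteolysis was captured as K50, inferred by Bayesian fitting of sequencing counts. Unfolding free energy was then derived relative to a sequence-predicted unfolded-state K50 and a shared folded-state K50, per protease or combined. Digestion used trypsin and chymotrypsin at 11 threefold-diluted concentrations plus a no-protease condition, on mini-proteins under 80 residues without cysteine in a PA-tagged cDNA display construct. Designs were kept only when AlphaFold2 dimer inter-PAE was above 15.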

| Sequence | folding stability dG unfold |
| --- | --- |
| SAGGVPLLSAELLTTDETGNRTYRLVYYDPSTGKVYEVVVSQPFPTGDFNPFLFTASSLEEALELVTSSAGG [r13_26_TrMRF] | 2.61 ± 0.057 kcal/mol |
| SAGGSAGGSAGKDKGQKEVPEINIRIEPVNFHWEYDKGNGKPKSIHFMFKIRYPNGREITSAGGSAGGSAGG [r11_890_TrROS] | 1.24 ± 0.1 kcal/mol |
| SAGPEPVIRLAREHLERGEVLRITLTGRSGVPRTFLLRPEDILWFFDNLPDPSDIASVDIETYPLGYPPSAG [r5_956_TrMRF] | 2.17 ± 0.028 kcal/mol |
| SKKKIEIEVIDLKTGKTETIEADTLEEALEEIKKNAPPGSTVIVRIKLPDGSVLEITLEIKPEKVTEKEKSA [r9_482_TrROS_Hall] | 0.956 ± 0.074 kcal/mol |
| SAGGSAGGSAGGGKEISLDELIDIAIELGYPGTIEDLLADPNIKIYPNPYDDKPVILIPDSAGGSAGGSAGG [r7_180_TrMRF] | 1.7 ± 0.065 kcal/mol |
| SAGGSAPESVKPPVVVVTLVLEFPDGRKLTIPVAHEELAEALEVALALPLALEHDTKLVKVEKANVSAGGSA [r15_140_TrMRF] | 0.265 ± 0.12 kcal/mol |
| SAGGSAGGSAGGWDEIKDILREAGWPVKNVEVQWIPNPENGKPMNSITVSYPDGKKWTIMSAGGSAGGSAGG [r7_337_TrROS] | -0.195 ± 0.13 kcal/mol |
| SAGGKEVKITFKAPKEEAVPKVKKAAEEYGVTVKSIDYDPETGKVTVVVDDSVPEEKVKEAFEKVLKSAGGS [r8_338_TrMRF] | 1.53 ± 0.078 kcal/mol |
| SAGGSAGGSAGGSDDPDGKPKPQIPPIKVEPIPIKDPNGWSIEIYYFPWNGMLIISFYNSAGGSAGGSAGGS [r4_305_TrROS] | 3.3 ± 0.22 kcal/mol |
| SAGGSAGGSAGGGKKKVTVEFVIKVPKNSKPVFFTIKGGIKVEFYPIPDTNYALVKVTFGSAGGSAGGSAGG [r7_796_TrMRF] | 2.46 ± 0.19 kcal/mol |
| FTMDEMKELADNIADNLAKEDGYKIKSVNIDATIPIPVYMKVRPDPNGEPRWEMHWMPIKVKINVEIKPPNS [r1_91_TrROS] | 2.02 ± 0.18 kcal/mol |

experiment: folding stability dG unfold from chymotrypsin proteolysis; higher = more stable
Outline: as §1

| Sequence | folding stability dG unfold |
| --- | --- |
| SAGGSAGGSMTLKVTLPNGKVIELPLPEELENIPAETIAKLLGEENVRLELYSPDGVPYDFGASAGGSAGGS [r12_411_TrMRF] | 0.726 ± 0.09 kcal/mol |
| SAGGSAEQTATIESVEYNEETGELTIRIRLENGEEVEITVKPDGTITITLPPGAKITEIEIERLPPSAGGSA [r15_959_TrROS_Hall] | 2.3 ± 0.32 kcal/mol |
| SAGTIRGLPAEFAKRIANELAQNGYEIVAVTVTYDPPNGTFKIEVEMRPPNGKVREHDIEIQVRLPPDDSAG [r5_985_TrROS] | 2.7 ± 0.092 kcal/mol |
| SAGGSAGGSVYSAKSPDGYTITISNGGKPITLPVSDPAKAASLTLKTPDGKTATVTIVPASLASAGGSAGGS [r12_730_JUSTAS] | -0.295 ± 0.23 kcal/mol |
| SAGWQTIDFPIPPGEDIPIPIGNRPLRIQVDPNKNKYEIFNPFLGYRISIDVDPGAGWIKITIEPLKPPSAG [r5_302_TrROS] | 4.5 ± 0.15 kcal/mol |
| SAGGSAEKKVLKVKVEVVSVEVNEDGTVTVTAKVTFEDGLELTVTVTFDKETGELTIEVELRPLPPSAGGSA [r15_401_TrROS_Hall] | 3.48 ± 0.15 kcal/mol |
| SAGGMKTFEKPMTAEEVMALLEEIAKKGNVNVTIETEGKTYEVDPSKAKPIPPENVTAKITITELPKSAGGS [r16_628_JUSTAS] | -0.182 ± 0.17 kcal/mol |
| SAGGSSIKIPNPNGYEIEIEVTPDRAKIKWRMPGKEQEQEFPPGEDVTIRFPDGMPLTIKIPPPGESAGGSA [r2_57_TrROS] | 0.154 ± 0.26 kcal/mol |
| SAGGSAGGSAGGATAEELAAALKELEAKLKALLEKPEEVEVEVEVKAPEVEEVDGKLVLLSAGGSAGGSAGG [r7_44_TrROS_Hall] | -1.19 ± 0.33 kcal/mol |
| SAGKPIDLGEVEVEISPVSYDPETGKLTYQARLVTKDGKPIYTASVTYDPKTGKFSISVTPIGYDPSAFSAG [r5_200_TrMRF] | 1.99 ± 0.12 kcal/mol |
| SAGGSAGGKNWRTIPFMIWIPPGAPPIEFEIPLPDGWKVEIEISVVRNPDGWYFIMFSITVQPDSAGGSAGG [r6_510_TrROS] | 3.85 ± 0.17 kcal/mol |
| SAGGSAGGGRYLVLIEFENGFPLAYVFPSPEDVVEHTRLLEERLGYPIKRIEVYKIDPNGKAYASAGGSAGG [r6_162_TrMRF] | 2.42 ± 0.12 kcal/mol |
| SEDTVTIEVRAFPVKDKNGKPRFYVSIEFGNGPVSYPIPGLPEGMKEGETFTIEIPPENIKKVDISIMPYSA [r9_769_TrROS] | 2.09 ± 0.1 kcal/mol |
| SAGGKKIVLFVGPPELVEELKKAYPDLPFVPIPVEVLENPEPAAEIIKELKEKGYEVVVYNFPDLKESAGGS [r8_376_TrMRF] | 2.562 ± 0.021 kcal/mol |
| SNNKRITIEIPFPMPAEQARNFMEAFGIKKIEYEKHDDPGYYRVKYTVPDDNVTIDIHIFPPPVPPGQKPSA [r9_1090_TrROS] | 1.83 ± 0.15 kcal/mol |
| SLTAEEAAANPELAARLLALPPVPPFPVELLFVNPETRAVLPAKATVYQFPNTWLVLFPENGAALPVPGGSA [r9_548_TrMRF] | 1.26 ± 0.074 kcal/mol |
| SAGLEVVKKLAEELGFPVEILRVEYDPETGELTFEAVARPKDGKTRRVRIRIRVPKESDEVEIELEYFDSAG [r5_929_TrMRF] | 3.95 ± 0.082 kcal/mol |
| SAGGSAGGSAGDGINFTLDIPIEGDFELRDVYLTPLEPENRRAFFLLRYKDGPVLLTLPLSAGGSAGGSAGG [r11_1013_TrMRF] | 0.922 ± 0.18 kcal/mol |
| SAGGSGMSFSITEEVVIPTPGPRTLLLLKTEGDIIIVERDGERLRPVKTVPRKEVPEEPEKLIEELSAGGSA [r2_133_JUSTAS] | -0.243 ± 0.15 kcal/mol |
| SAGGSAGGSWEWITAEEALKRAREENPPGKPIEFHFEDPWYFTVRFDGEDPNDVTIEWVPLEKSAGGSAGGS [r12_648_TrROS] | 1.47 ± 0.18 kcal/mol |
| SAGGSAGGMVTSSVSALPDGSYRLTITYPDGTVLTFEFDSEEEVAALLAELAEALPADAAVPLASAGGSAGG [r6_464_JUSTAS] | 1.65 ± 0.046 kcal/mol |
